Measured values published in patent US20230057602A1 (Bristol-Myers Squibb, published 2023).

Biological target: T1, human B cell maturation antigen (BCMA) (human, UniProt Q02223 1-184)
T1 sequence (looked up): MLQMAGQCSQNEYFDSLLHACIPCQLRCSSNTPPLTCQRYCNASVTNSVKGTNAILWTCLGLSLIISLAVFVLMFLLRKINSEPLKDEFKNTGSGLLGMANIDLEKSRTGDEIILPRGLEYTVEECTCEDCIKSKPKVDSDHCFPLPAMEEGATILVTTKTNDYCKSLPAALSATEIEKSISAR
Assay: cell-based or functional assay

B1: CC-93269 (42-TCBcv) (bispecific antibody, human IgG1, kappa, L234A L235A)
heavy 1: not shown
heavy 2: EVQLLESGGGLVQPGGSLRLSCAASGFTFSDNAMGWVRQAPGKGLEWVSAISGPGSSTYYADSVKGRFTISRDNSKNTLYLQMNSLRAEDTAVYYCAKVLGWFDYWGQGTLVTVSSASTKGPSVFPLAPSSKSTSGGTAALGCLVEDYFPEPVTVSWNSGALTSGVHTFPAVLQSSGLYSLSSVVTVPSSSLGTQTYICNVNHKPSNTKVDEKVEPKSCDKTHTCPPCPAPEAAGGPSVFLFPPKPKDTLMISRTPEVTCVVVDVSHEDPEVKFNWYVDGVEVHNAKTKPREEQYNSTYRVVSVLTVLHQDWLNGKEYKCKVSNKALGAPIEKTISKAKGQPREPQVCTLPPSRDELTKNQVSLSCAVKGFYPSDIAVEWESNGQPENNYKTTPPVLDSDGSFFLVSKLTVDKSRWQQGNVFSCSVMHEALHNHYTQKSLSLSPGK
light 1: EIVLTQSPGTLSLSPGERATLSCRASQSVSDEYLSWYQQKPGQAPRLLIHSASTRATGIPDRFSGSGSGTDFTLAISRLEPEDFAVYYCQQYGYPPDFTFGQGTKVEIKRTVAAPSVFIFPPSDRKLKSGTASVVCLLNNFYPREAKVQWKVDNALQSGNSQESVTEQDSKDSTYSLSSTLTLSKADYEKHKVYACEVTHQGLSSPVTKSFNRGEC
light 2: EVQLLESGGGLVQPGGSLRLSCAASGFTFSTYAMNWVRQAPGKGLEWVSRIRSKYNNYATYYADSVKGRFTISRDDSKNTLYLQMNSLRAEDTAVYYCVRHGNFGNSYVSWFAYWGQGTLVTVSSASVAAPSVFIFPPSDEQLKSGTASVVCLLNNFYPREAKVQWKVDNALQSGNSQESVTEQDSKDSTYSLSSTLTLSKADYEKHKVYACEVTHQGLSSPVTKSFNRGEC
- IC50 (ng/ml) of redirected lysis, H929 cells co-cultured with healthy donor T cells (E:T 1:1, 72 h), DMSO control, mean of 3 donors: 3.42 ng/mL
- IC50 (ng/ml) of redirected lysis, H929 cells co-cultured with healthy donor T cells (E:T 1:1, 72 h), with 1 µM dexamethasone, mean of 3 donors: 6.52 ng/mL
- IC50 (ng/ml) of redirected lysis, KMS12-PE cells co-cultured with healthy donor T cells (E:T 1:1, 72 h), DMSO control, mean of 3 donors: 0.2 ng/mL
- IC50 (ng/ml) of redirected lysis, KMS12-PE cells co-cultured with healthy donor T cells (E:T 1:1, 72 h), with 1 µM dexamethasone, mean of 3 donors: 3.61 ng/mL
- IC50 (ng/ml) of redirected lysis, MM1S cells co-cultured with healthy donor T cells (E:T 1:1, 72 h), DMSO control, mean of 3 donors: 0.21 ng/mL
- IC50 (ng/ml) of redirected lysis, MM1S cells co-cultured with healthy donor T cells (E:T 1:1, 72 h), with 1 µM dexamethasone, mean of 3 donors: 3.31 ng/mL
- IC50 (ng/ml) of redirected lysis, SKMM2 cells co-cultured with healthy donor T cells (E:T 1:1, 72 h), DMSO control, mean of 3 donors: 0.09 ng/mL
- IC50 (ng/ml) of redirected lysis, SKMM2 cells co-cultured with healthy donor T cells (E:T 1:1, 72 h), with 1 µM dexamethasone, mean of 3 donors: 0.34 ng/mL
